Patent US20170298124A1, “ANTIBODIES AGAINST PATHOLOGICAL FORMS OF TDP-43 AND USES THEREOF” (Academia Sinica, published 2017)

Columns and labels:
[1] = molecular target: TDP-43s short-form TDP-43 (RRM1-RRM2) (Mus musculus, UniProt Q921F2 Q921F2:101-265); assay: intrinsic fluorescence titration (ex 280, em 350 nm), 1.5 uM protein, 30 mM Tris-HCl pH 8; conditions: tags: prepared per Kuo et al 2009
[2] = molecular target: TDP-43 full-length (oligomers) (Homo sapiens, UniProt Q13148 Q13148:1-414); assay: intrinsic fluorescence titration (ex 280, em 350 nm), 1.5 uM protein, 30 mM Tris-HCl pH 8; residual binding may come from minor monomer population; conditions: chain copies: oligomer (stated); 1:1 stoichiometry of TDP-43 and ssDNA from fit
TDP-43 full-length (oligomers), sequence (Q13148 whole entry, one chain of several): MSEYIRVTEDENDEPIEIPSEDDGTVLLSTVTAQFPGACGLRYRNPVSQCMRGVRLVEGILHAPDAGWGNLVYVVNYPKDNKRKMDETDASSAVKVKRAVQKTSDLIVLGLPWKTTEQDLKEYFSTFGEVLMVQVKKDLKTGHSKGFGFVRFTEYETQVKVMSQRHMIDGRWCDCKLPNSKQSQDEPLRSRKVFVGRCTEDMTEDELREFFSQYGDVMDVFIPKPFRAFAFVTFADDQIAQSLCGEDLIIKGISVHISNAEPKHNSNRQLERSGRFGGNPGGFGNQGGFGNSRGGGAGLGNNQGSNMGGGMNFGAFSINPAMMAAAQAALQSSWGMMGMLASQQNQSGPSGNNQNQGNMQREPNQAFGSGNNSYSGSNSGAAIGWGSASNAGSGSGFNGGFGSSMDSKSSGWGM

Binder | Kd [1] [µM] | Kd [2] [µM]
CTTTTTGCCTGT (ssDNA) [TAR DNA A-site] | 0.2 | 7.05
TGGGTCTCTCTG (ssDNA) [TAR DNA B-site] | 0.38 | 6.27
